Data from patent US20250206799A1 (KEROS THERAPEUTICS, published 2025).

T1: extracellular ActRIIB (SEQ ID NO: 17) fused to the N-terminus of hFc through a GGG linker (human, UniProt Q13705 20-134)
T1 construct: also called ActRIIB-Fc; not shown: hFc
T1 sequence: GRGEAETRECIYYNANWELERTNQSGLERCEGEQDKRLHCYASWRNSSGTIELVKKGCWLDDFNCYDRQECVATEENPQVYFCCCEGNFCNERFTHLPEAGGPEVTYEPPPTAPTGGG

T2: BMP-9, Q9UK05
T2 chain: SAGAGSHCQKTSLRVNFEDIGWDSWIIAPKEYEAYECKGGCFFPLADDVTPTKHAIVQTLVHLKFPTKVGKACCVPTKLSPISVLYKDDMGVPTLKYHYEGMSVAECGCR

B1: BMP-9 (ligand, UniProt Q9UK05 320-429, looked up)
chain: SAGAGSHCQKTSLRVNFEDIGWDSWIIAPKEYEAYECKGGCFFPLADDVTPTKHAIVQTLVHLKFPTKVGKACCVPTKLSPISVLYKDDMGVPTLKYHYEGMSVAECGCR
notes: also called bone morphogenetic protein 9
B2: Activin A (ligand, UniProt P08476 311-426, looked up)
chain: GLECDGKVNICCKKQFFVSFKDIGWNDWIIAPSGYHANYCEGECPSHIAGTSGSSLSFHSTVINHYRMRGHSPFANLKSCCVPTKLRPMSMLYYDDGQNIIKKDIQNMIVEECGCS
B3: Activin B (ligand, UniProt P09529 293-407, looked up)
chain: GLECDGRTNLCCRQQFFIDFRLIGWNDWIIAPTGYYGNYCEGSCPAYLAGVPGSASSFHTAVVNQYRMRGLNPGTVNSCCIPTKLSTMSMLYFDDEYNIVKRDVPNMIVEECGCA
B4: extracellular ActRIIA (SEQ ID NO: 16) fused to the N-terminus of hFc through a GGG linker (Fc fusion)
chain: AILGRSETQECLFFNANWEKDRTNQTGVEPCYGDKDKRRHCFATWKNISGSIEIVKQGCWLDDINCYDRTDCVEKKDSPEVYFCCCEGNMCNEKFSYFPEMEVTQPTSGGG
notes: also called ActRIIA-Fc; not shown: hFc
B5: growth differentiation factor 11 (GDF11) (ligand, UniProt O95390 299-407, looked up)
chain: NLGLDCDEHSSESRCCRYPLTVDFEAFGWDWIIAPKRYKANYCSGQCEYMFMQKYPHTHLVQQANPRGSAGPCCTPTKMSPINMLYFNDKQQIIYGKIPGMVVDRCGCS

Tests used:
Activin A = target: B2; assay: SPR (Biacore 3000), ActRII-Fc captured by anti-Fc antibody, ligand in solution
Excerpt: (§1) The GE Biacore 3000 was used to measure the kinetics of the interactions between the ActRIIB-Fc variants and the ligands Activin A, Activin B, growth differentiation factor 11 (GDF11), and BMP-9. ActRIIA, ActRIIB, ActRIIB 2.06, ActRIIB 2.11 and ActRIIB 2.12 were recombinant proteins. All other ActRIIB-Fc variants were expressed by transient expression in HEK293 cells and purified from the conditioned media using Protein-A Sepharose chromatography. Flow cells 1-4 were immobilized with anti-human/anti-mouse capture antibodies from GE using the amine coupling kit. The ActRII-Fc proteins were then captured on the chip in flow cells 2-4, with flow cell 1 being left empty as a reference cell to measure and subtract any nonspecific binding. HBS-EP+ buffer from GE Healthcare™ was used as a running buffer. Each ligand was run in a duplicate concentration series at 40 μl/min to avoid mass transport effects. All data was collected on a CM-5 chip except for GDF-11, which used CM-4. The data was analyzed using Scrubber2 by BioLogic™ Software to calculate the KD of each interaction (Table 3).

Activin B = target: B3; assay: as above
Excerpt: as §1

BMP-9 = target: B1; assay: as above
Excerpt: as §1

[1] = target: B5; assay: SPR (Biacore 3000), ActRII-Fc captured by anti-Fc antibody, ligand in solution, CM-4 chip
Excerpt: as §1

[2] = target: B4; assay: SPR (Biacore 3000), ActRII-Fc captured by anti-Fc antibody, ligand in solution
Excerpt: as §1

[3] = target: T1, extracellular ActRIIB (SEQ ID NO: 17) …; assay: as above
Excerpt: as §1

BMP-9, Q9UK05 = target: T2, BMP-9, Q9UK05; assay: as above; settings: remark: other sources report otherwise
[4] = target: B4; assay: SPR (Biacore 3000), ActRII-Fc captured by anti-Fc antibody, ligand in solution, CM-4 chip
Excerpt: as §1

[5] = target: T1, extracellular ActRIIB (SEQ ID NO: 17) …; assay: as above
Excerpt: as §1

Kd (Activin A) [pM] | Kd (Activin B) [pM] | Kd (BMP-9) [pM] | binding result (Activin A) | binding result (Activin B) | binding result (BMP-9) | binding result [1] | Binder | further results
780 | 370 | 2700 | – | – | – | – | ActRIIB 2.11 (SEQ ID NO: 14)-Fc (Fc fusion, not shown: a dimerising Fc or GST, also called ActRIIB 2.11 variant; ActRIIB 2.11-Fc) GRGEAETRECLYYNANWELERTNQSGVERCEGEKDKRLHCYASWRNSSGSLEIVKKGCWLDDFNCYDRTDCVATKENPQVYFCCCEGNMCNERFTHLPEAGGPEVTYEPPPTAPT | Kd [1]: 240 pM
140 | 160 | 31000 | – | – | – | – | ActRIIB 2.12 (SEQ ID NO: 15)-Fc (Fc fusion, not shown: a dimerising Fc or GST, also called ActRIIB 2.12 variant; ActRIIB 2.12-Fc) GRGEAETRECLYYNANWELERTNQSGVERCEGEKDKRLHCYASWRNSSGSLEIVKKGCWLDDFNCYDRDTCVATKENPQVYFCCCEGNMCNERFTHLPEAGGPEVTYEPPPTAPT | Kd [1]: 130 pM
100 | 160 | 440 | – | – | – | – | extracellular ActRIIB variant ActRIIB 2.09 (SEQ ID NO: 12) fused to the N-terminus of hFc through a GGG linker (Fc fusion, also called ActRIIB 2.09 variant; not shown: hFc) GRGEAETRECLYYNANWELERTNQSGVERCEGEKDKRLHCYASWRNSSGSLEIVKKGCWLDDFNCYDRTDCVATEENPQVYFCCCEGNMCNERFTHLPEAGGPEVTYEPPPTAPTGGG | –
450 | 280 | 1700 | – | – | – | – | extracellular ActRIIB variant ActRIIB 2.10 (SEQ ID NO: 13) fused to the N-terminus of hFc through a GGG linker (Fc fusion, also called ActRIIB 2.10 variant; not shown: hFc) GRGEAETRECLYYNANWELERTNQSGVERCEGEKDKRLHCYASWRNSSGSLEIVKKGCWLDDFNCYDRDTCVATEENPQVYFCCCEGNMCNERFTHLPEAGGPEVTYEPPPTAPTGGG | –
– | – | – | – | – | – | – | B1 | Kd [2]: 25000 pM; Kd [3]: 280 pM
– | – | – | no binding | no binding | no binding | no binding | extracellular ActRIIB variant ActRIIB 2.01 (SEQ ID NO: 4) fused to the N-terminus of hFc through a GGG linker (Fc fusion, also called ActRIIB 2.01 variant; not shown: hFc) GRGEAETRECIYYNANWELERTNQSGLERCEGEQDKRLHCYASWRNSSGTIELVKKGCWLDDFNCYDRQECVAKKDSPEVYFCCCEGNFCNERFTHLPEAGGPEVTYEPPPTAPTGGG | –
– | – | – | no binding | no binding | – | no binding | extracellular ActRIIB variant ActRIIB/A (SEQ ID NO: 2) fused to the N-terminus of hFc through a GGG linker (Fc fusion, also called ActRIIB/A variant; not shown: hFc) GRGEAETRECIFYNANWEKDRTNQSGLEPCYGDQDKRRHCFASWKNSSGTIELVKQGCWLDDINCYDRQECVAKKDSPEVYFCCCEGNFCNERFTHLPEAGGPEVTYEPPPTAPTGGG | Kd (BMP-9, Q9UK05): 88000 pM
– | – | – | no binding | no binding | no binding | no binding | extracellular ActRIIB variant ActRIIB 2.02 (SEQ ID NO: 5) fused to the N-terminus of hFc through a GGG linker (Fc fusion, also called ActRIIB 2.02 variant; not shown: hFc) GRGEAETRECIYYNANWELERTNQTGLERCEGEQDKRLHCYASWRNISGTIELVKKGCWLDDFNCYDRQECVAKKDSPEVYFCCCEGNFCNERFTHLPEAGGPEVTYEPPPTAPTGGG | –
– | – | – | – | – | – | – | B2 | Kd [3]: 63 pM
390000 | 400000 | 28000 | – | – | – | – | extracellular ActRIIB variant ActRIIBΔ9 (SEQ ID NO: 3) fused to the N-terminus of hFc through a GGG linker (Fc fusion, also called ActRIIBΔ9 variant; not shown: hFc) GRGEAETRECIYYNANWELDRTNQSGLERCEGEQDKRLHCYASWRNSSGTIELVKKGCWLDDINCYDRQECVATKENPQVYFCCCEGNFCNERFTHLPEAGGPEVTYEPPPTAPTGGG | Kd [1]: 530000 pM
– | – | – | no binding | no binding | no binding | no binding | extracellular ActRIIB variant ActRIIB 2.05 (SEQ ID NO: 8) fused to the N-terminus of hFc through a GGG linker (Fc fusion, also called ActRIIB 2.05 variant; not shown: hFc) GRGEAETRECIYYNANWELERTNQSGLERCYGDKDKRLHCYASWRNSSGTIELVKKGCWLDDFNCYDRQECVAKKDSPEVYFCCCEGNFCNERFTHLPEAGGPEVTYEPPPTAPTGGG | –
53 | 100 | 300 | – | – | – | – | extracellular ActRIIB variant ActRIIB 2.06 (SEQ ID NO: 9) fused to the N-terminus of hFc through a GGG linker (Fc fusion, also called ActRIIB 2.06 variant; not shown: hFc) GRGEAETRECIYYNANWELERTNQSGLERCEGEQDKRLHCFASWKNSSGTIELVKQGCWLDDFNCYDRQECVAKKDSPEVYFCCCEGNFCNERFTHLPEAGGPEVTYEPPPTAPTGGG | Kd [1]: 27 pM
– | – | – | no binding | no binding | no binding | no binding | extracellular ActRIIB variant ActRIIB 2.07 (SEQ ID NO: 10) fused to the N-terminus of hFc through a GGG linker (Fc fusion, also called ActRIIB 2.07 variant; not shown: hFc) GRGEAETRECIFYNANWEKDRTNQSGLERCEGEQDKRLHCYASWRNSSGTIELVKKGCWLDDFNCYDRQECVAKKDSPEVYFCCCEGNFCNERFTHLPEAGGPEVTYEPPPTAPTGGG | –
– | – | – | no binding | no binding | no binding | no binding | extracellular ActRIIB variant ActRIIB 2.04 (SEQ ID NO: 7) fused to the N-terminus of hFc through a GGG linker (Fc fusion, also called ActRIIB 2.04 variant; not shown: hFc) GRGEAETRECIYYNANWELERTNQSGLEPCEGEQDKRLHCYASWRNSSGTIELVKKGCWLDDFNCYDRQECVAKKDSPEVYFCCCEGNFCNERFTHLPEAGGPEVTYEPPPTAPTGGG | –
– | – | – | no binding | no binding | no binding | no binding | extracellular ActRIIB variant ActRIIB 2.03 (SEQ ID NO: 6) fused to the N-terminus of hFc through a GGG linker (Fc fusion, also called ActRIIB 2.03 variant; not shown: hFc) GRGEAETRECIYYNANWELERTNQTGLERCEGEQDKRLHCYASWRNITGTIELVKKGCWLDDFNCYDRQECVAKKDSPEVYFCCCEGNFCNERFTHLPEAGGPEVTYEPPPTAPTGGG | –
– | – | – | – | – | – | – | B3 | Kd [3]: 23 pM
– | – | – | no binding | no binding | no binding | no binding | extracellular ActRIIB variant ActRIIB 2.08 (SEQ ID NO: 11) fused to the N-terminus of hFc through a GGG linker (Fc fusion, also called ActRIIB 2.08 variant; not shown: hFc) GRGEAETRECIYYNANWELERTNQSGLERCYGDQDKRRHCYASWRNSSGTIELVKKGCWLDDFNCYDRQECVAKKDSPEVYFCCCEGNFCNERFTHLPEAGGPEVTYEPPPTAPTGGG | –
1000 | 370 | – | – | – | – | – | B4 | –
– | – | – | – | – | – | – | B5 | Kd [4]: 81 pM; Kd [5]: 120 pM
